Test results published in the DeepSol protein solubility set.

assay: soluble on expression in E. coli; label from the status in PepcDB or PDB records

| Sequence | soluble on expression in E. coli |
| --- | --- |
| MSLSDSRSDDRHPSVTPEQLATLSHEFRTPLNGVLGMARLLENTKLTAEQRSYVTALRESGDHLLSLVNDVLHFARLGAAAIELSLAPVDIEGLLRQVAELMSPRAHEKGIEIAWAVSSPLPTILADEGRLRQILLNFAGNAVKFTEAGGVLLTASAIDGGRVRFSVADTGPGVAPDARARIFEAFVQTDVTHATQLGGAGLGLAIVSRLSAAMGGAVGVGGELGQGAEFWFEAPFATAAAPLRAAPLEGRNVAIASPNAIVRAATARQIEAAGGRAYAAVDIASALAGAPADAVLLIDAALSGPRGALKPPAGRRSVVLLTPEQRDRIDRLKAAGFSGYLIKPLRAASLVAQVLQAVTADGVAEDEPAHDDRIAGAVASGARVLLAEDNPINALLARTLLEREGCIVDRVADGEQAIAAASAGVYDLILMDLRMPGLTGIEAARALRAKGVATPIAALTADAFDEDRRTCLAAGMDDFLVKPLTQEALRDALKRWTTGGVSGEGHHHHHH | soluble |
| MTASSDPHVIFVGSGINSLVSAALLATRGKRVLVLERNDRLGGCIRTEELFPGYHHEVMSSWYPLFVGSPGYAELKPALEQAGLAFLCPDYTTGLVWPDGRGLALKQDLNDAVQRLEALAPGDGAALGAMAARLFGPDAALTFGLLGQNPYGWAMLKLLFGQWRQRGTDGLAAFAADALETFRRWSERTLRSDLARALIAPWVLHSGLGPDDAGSALIGKLTFASVVSGGMPVVKGGGSRLVEALARVIEQHGGTLMTGTPVEQVLTEGQGRRRRATGVAVTGGRRLRAQQAVVCNVTPQQLYGRLLPEMPQPLRERAEGYRYGRGDMQIHFALNAPPAWREAELCKVPLVHLTESLEQVCASVTQANNGLLPSRPTLGIGQPTVADPSRAPAGGWILWIQMQELPTRLKGDAAGEIPVPADGRWNEAVREAFADRVQARLERVMPGLAERIVGRRAYSPADLEVLNCNLVGGDPYSGVCSPDQFFWLRPFAGSQGARAHRTPLANVFHIGASTHPGPGLGAGSGFMVAQHLSPR | not soluble |
| MDRMKIEAVIFDWAGTTVDYGCFAPLEVFMEIFHKRGVAITAEEARKPMGLLKIDHVRALTEMPRIASEWNRVFRQLPTEADIQEMYEEFEEILFAILPRYASPINAVKEVIASLRERGIKIGSTTGYTREMMDIVAKEAALQGYKPDFLVTPDDVPAGRPYPWMCYKNAMELGVYPMNHMIKVGDTVSDMKEGRNAGMWTVGVILGSSELGLTEEEVENMDSVELREKIEVVRNRFVENGAHFTIETMQELESVMEHIEKQELIIS | soluble |
| GAMDPDLEATLRAIVHSATSLVDARYGAMEVHDRQHRVLHFVYEGIDEETVRRIGHLPKGLGVIGLLIEDPKPLRLDDVSAHPASIGFPPYHPPMRTFLGVPVRVRDESFGTLYLTDKTNGQPFSDDDEVLVQALAAAAGIAVANARLYQQAK | soluble |
| MNLNYTIASQVNPHVVPFMQSDASRYRKDILSWPQRILRRQGKVISLGIMDFTRERLGNVPPVRRLLDHGYGIVGQRYYGDVNIIAPFNLRQYAYMLQNPRPHLFKLLQQQGERATLEHHHHHH | soluble |
| WSYEHLHLTNRIKLLYAPTFRDNELGMAKLHLDIAEMKQALGNEYQLILKLHPSISNDLEKLDDDFVIYVDKETPIETLLPVVDILITDYSSIPFEFALLQKPMIFFTYDLTEYNNARGLSDGFLETIPGPHVFTTTELIEVIQNNTFDLEKVRLFAEKWNKYSDGFSSERFVSFLKE | not soluble |
| AGENLYFQSLMNNFGNEEFDCHFLDEGFTAKDILDQKINEVSSSDDKDAFYVADLGDILKKHLRWLKALPRVTPFYAVKCNDSKAIVKTLAATGTGFDCASKTEIQLVQSLGVPPERIIYANPCKQVSQIKYAANNGVQMMTFDSEVELMKVARAHPKAKLVLRIATDDSKAVCRLSVKFGATLRTSRLLLERAKELNIDVVGVSFHVGSGCTDPETFVQAISDARCVFDMGAEVGFSMYLLDIGGGFPGSEDVKLKFEEITGVINPALDKYFPSDSGVRIIAEPGRYYVASAFTLAVNIIAKKIVLKEQTGSDDEDESSEQTFMYYVNDGVYGSFNCILYDHAHVKPLLQKRPKPDEKYYSSSIWGPTCDGLDRIVERCDLPEMHVGDWMLFENMGAYTVAAASTFNGFQRPTIYYVMSGPAWQLMQQFQNPDFPPEVEEQDASTLPVSCAWESGMKRHRAACASASINV | soluble |
| MQPTPSEYARTPVRIEMQRSKERNSMVYKEMYNDAQRKYSEALDRISKLTDAYLREKAEVENFIKIKDREVEMSKKNANEKLLKDFLPVLDSIDAAIQAEKDNNLIRIRDQMLGVLSRYGLKPIKAEGSKFDPYLHEVVGVTADGEDGMVKYEVQRGYTLNDGVLRTSKVIVVKR | not soluble |
| MGSDKIHHHHHHMAGPGCMLMFNRAAKDDATPRMRAGVAVNTGHSLAYQHVIEPSAGYQAKLEAELNPENGRRLSASLIAQILNLGSTSDPDIPAASQLAMAILKTIEAFQISREREPGPEHAPLDVLPLALRSPDADERAHEVCQRIAEHARALWQRMINERSGIPITHDTYLKILQLREPYFSFDFWILDEYQDTTPVVDELVNQQEGQKLYIGDPYQAIYSWRGAINALAGPIDRGLPVHYLTDSFRYNHQIAGMATLILRALGEPVPVRGQPRNFIHRRADDNHTIICRTNLSILVRAGELIVRGSPVFVDGGIPKSTYQRIESALALFQGRPNDVRISTLRQMGSWTAFVDYARGLGERADDMMNLIALVEQYQSQLPVLIDTLKRRLPYRNPRKPGQTTLITAHRSKGRQFAHVELDPDIGLPGDLMIKIQNQAPLQPKERESLHLLYVALTRAELSLELPKRIKENLKLLHGWFNRGTDTAETFTAKTTIPLPKAHAQTAQRARTEAFIRAHRRTD | not soluble |
| MGSDKIHHHHHHMKCLRESAIVAYAETKVMEKSDRDVWELDAEVLEALLERSGFEKGEIDGLVMAGFGLTAAGESFWAQVTADQLGLELDYCDQVHIGGCSATGSVARAAAAIDAGLCTTVLLLFADTGVAENNRGDRSFRREWADPYGVFGPPDAFGLLTRRYEHQYGLDYEMLGKLAVTQRAHAVLNENACEKLRKPITIDDYLNSRMIADPIRLLDCVMRCDAASGLLMTSRRRAREKGIDKFITPIGYGERTNFQGGENFVDVTRSGHEACGKRALAQAGLALKDVASFHPYDDFIIAIMLQLEAFGFCGRGQGVQFIREMNFSFDGDLPLNTGGGQISAGQAACCSHNLIEAIRQLMGEGGARQVRNTANALVSGIGWINYSRNWGTSSALVLAPNA | not soluble |
| MGSDKIHHHHHHMRGIGLTHAFADISGLAFDRLFMVTETDGTFITARQFPQMVKFIPAPLHDGLHLSAPDGSSAVVRFSDFATQAEPTEVWGNHFTALIAPAAVNQWLSGFFKRDVQLRWLGPQLTRRVKRHDAVPLSFADGYPYLLANEASLRDLQQRCPASVSIEQFRPNLVVTGAAAWDEDSWKVIRIGEVVFDVAKPCSRCIFTTISPERGQKHPAGEPLETLKRFRTALDNGDVDFGQNLIARNSGVIRVGDEVEILTRGPAKAYGAGESDDTPAPEAQQQATVAIEWQGQQFTGNNQQVLLEQLEQQGIRVPYSCRAGICGSCRIRLEEGEVSPLKKNAVAGDGTILACSCVPKTALRLAP | not soluble |
| MEEVTIKANLIFANGSTQTAEFQGTFEQATSEAYAYADTLKQDNGEWTVDVADQGYTLNIQFAG | soluble |
| MGSDKIHHHHHHLRNSIDLTKKIKEKAFEEGFDAVGIAKVPGSSRIKLRTASLERWLQAGHQATMEWMKSPRRKDIENMLQGVKSILAVGLNYYVDTERESKDISIARYGWGKDYHKIIEEKLKKVAKFLETERPNAKWKICVDTSAFLDKAWAEEAGIGWIGKHSNVINSEIGSWMFLGHLLSTEVLEADKPSKPICGECEKCIEACPTKAIEEPFIVNSYKCLAYHTLENRDQELPENIINKMGNWIAGCDICQDVCPWNQKHIPSTTEPDLQPSEWILHTTKQDLLSWDDAKWKESLKNSALKRIKPWMWRRNIDSISKKT | not soluble |
| MKMKILGISFGTKNGNNDTMCKVALKGAKEAGAEVEFIQMSSINIKHCTGCCACVKTLLSGKGSMCVLKDDFEWLLDKMKDADGIVVSDPIFEEGASGLFHTIMDRFGPRADRGNNIIGTKVAEAIGGKIPDSRMLNDKVISFMGIGGSDWGTRVQCEHAMLALIPMWKVIDNAWFPWAKELVMDDTRLVQVHQIGLNIVEAAKDFEKASYQGEEGVCPHCHNRLFYLEPGTKKAICALCGIVGELDTISGKTIFSFPEEQLGHAHDTLPGKFIHGDDIKKMEGHYAEVRKTQEFKERKTSYNFIETLTKEKQAGLEHHHHHH | not soluble |
| MGSDKIHHHHHHMNDIIKLIKSIIIEMDMEAYIVGGYIRDKLMNPKNSASDLDIAFQGDFEKILDELRKRKIKVSSIKKDSSVYRITVNGYCADISKIKGKNINEDLSKRDFTVNAIALDIKNNKIVDPFDGRVHIKRRILQVIDEKSFEDDAVRILRGIRFYIKYGMHFNGYTEEYIRKHSKNIMKFPRDRVLDEIIHIIHEDENGVFFEVMDQYMILKNILPYMEELKTVGKCKHHLVDAFTHMNTAYHVFKDMKKKYLKVKNINIEEFNKDIGVYNELDYLAFAIFTHDIGKYVSYKKEGQKISFKGHDEKGLEIIEKVCDELKFPNDGKKIVCSVVKNHMYPLMLFKLKEDERKQEEYEFFNKFDQYVPHIIVASFCDVYATTIYIDENNEKDRFTSFISELVVKYREFINLKKIKYIDGNDLIDMGFRGNDIGNILNELNKMLYIEGSKTKKEQQDFVLRMKDKL | not soluble |
| MSLRAAKRHGISIIVAEKNLILGLDVGNTVIKAVLFDTAGRQIAQHAIDGHSTYPQPGYVERDLEELWRNGCEAIRQLLVKSAVDPNSIAGVGCAGHGNGLYLLDKEQQPLLGIQSLDSRAADMAAELDRKSGDLLQARCLQRPWPAQTPTLLAWVKRHALDLYAQTSTVLFCKDFINFRLTGCLANDISDLSGAGLLALPEVLLDRELLSLYGLEDAFAFFPRCVESADIVGQVTREAAGLTGLSEGTPVIGGFFDVVSSAMGSGVINPGEASVIAGTWSINQVFADKPVVSPDVFMVTTFGRDRYVNIESSATSAANLEWYVHRVRADHGDHAFERCNELVGSVTPRADDPFFHPFIFGSRLGAEFRGGFYGLAGWHGEGHMVRALFEGVCFEHRRHIGVLREAGLPVESAVMSGGGSRSQHWPQIMADVLEIPLRVAEARETGALGAALGAAVATGLYPNYEEAVAAMTRVQNSYQPDTARVSHYRRRYGLYQELTGQLRSFWSALRLPQEGHHHHHH | not soluble |
| MGSDKIHHHHHHMTVFILNGEEPNQEGVRYVAKLLKREKLVEDIHFSTIDEIPLDNSYVLGDHSGTYFILKKIKPNALISLDAHTDLMQDYFDHASWLAYALKDNIIKRASVIGAVLMIPTTSGTKLWKRGVKVFPALPRTKKIRGKWKAYTNLEQHGVERVLKETREFLGKEIYLSIDLDVLSPEYRIARFQHGELTLRELLDIIEAIKKNFKIIAFDVAEISFRVAKSKYGRRAIIEVFSSLKEVFE | not soluble |
| MKKVEILKTSRPSSAGGAARPSTASPTHGAPKIAIKTRPVADDVAPTAATVIEPSQKAMKESVRFLTDFGEISDAISDLLTSSPNFNVISAIGPQGAGKSTLLSMLAGNNSRQMYREYVFRPVSREANEQSRHQTIQIDIYIVNHQIFLDCQPMYSFSIMEGLPKVRGGRFDDSTAMSDTLRLTAFLLYVSHTVLVVSETHYDKVIIDTLRVAEQIRPYLAIFRPKLAIDRKTNLVFIKTKASSIDLAPTVIREREELLRLSFQDSRWLKVSQEPFKTLIVLEEIRVRREHLFEEGDEPDEAASLNEFDEQIAELREELQKNREDFTVETAAMDEKKWLDMCREVIRDKTLHKTLKEYQRAMTDGVRTHFDNGFHAERDANKFFS | not soluble |
